Test results reported in paper PMC4209464.

What was measured:
[1] = target: Pyrococcus furiosus Chaperonin 60 with Ile138, with the last 22 amino acids deleted (PfCD) (Pyrococcus furiosus); test: SEC
[2] = target: Pyrococcus furiosus Chaperonin 60 with Ile138, with the last 22 amino acids deleted (PfCD) (Pyrococcus furiosus); test: native gel or EMSA
[3] = target: PfCD mutant Ile138His (Pyrococcus furiosus); test: native gel or EMSA

| Substance | stoichiometry N [1] | stoichiometry N [2] | stoichiometry N [3] |
| --- | --- | --- | --- |
| Pyrococcus furiosus Chaperonin 60 with Ile138, with the last 22 amino acids deleted (PfCD) (domain or fragment) | 16 | 16 | – |
| PfCD mutant Ile138His (domain or fragment) | – | – | 16 |
